# Assay results: the DeepSol protein solubility set
# Assay: soluble on expression in E. coli; label from the status in PepcDB or PDB records
row,Sequence,soluble on expression in E. coli
1,MTPGGQAQIGNVDLVKQLNSAAVYRLIDQYGPISRIQIAEQSQLAPASVTKITRQLIERGLIKEVDQQASTGGRRAISIVTETRNFHAIGVRLGRHDATITLFDLSSKVLAEEHYPLPERTQQTLEHALLNAIAQFIDSYQRKLRELIAISVILPGLVDPDSGKIHYMPHIQVENWGLVEALEERFKVTCFVGHDIRSLALAEHYFGASQDCEDSILVRVHRGTGAGIISNGRIFIGRNGNVGEIGHIQVEPLGERCHCGNFGCLETIAANAAIEQRVLNLLKQGYQSRVPLDDCTIKTICKAANKGDSLASEVIEYVGRHLGKTIAIAINLFNPQKIVIAGEITEADKVLLPAIESCINTQALKAFRTNLPVVRSELDHRSAIGAFALVKRAMLNGILLQHLLEN,soluble
2,MAHHHHHHMKLFCVGHRKVPIRVSPFDHPICVGCSSTLSFSSVLRKREYWNDMSTTNPLDVVLNMRLAVKELTNSAAASDKASEREKIKAKKALNKDNIEAARVYAENAIRKKDEGTSYLRLASRVDAAAERIQSAMQMHAMTRSLEKAICGISKVLHSLDPVQITTAMDAFERHVDTVAVNANAMDGTFERSRASAVPAAEVESFLEQITPDNEIDISEQIAVATNYLKKRPAATEVGDDVGITERMQRISIGAR,not soluble
3,MGSDKIHHHHHHMTEFEVHIDLGGSTFPVGLARCNRVRGTERILFEYDAEWLASPDRFSLEPALALTRGAFAPPAGMTSFGSIGDSAPDTWGRRLMQRAERRRAAREGRSVRTLAESDYLLGVSDETRLGALRFRRVGETSFQAPIQAGVPALVELGRLLQVTERVLRDEETDEDLQLIFAPGSSLGGARPKASVIDQYGHLAIAKFPKDTDEYSVETWEEIALRLANQAGIVTPQHELVDVGGRAVMLSRRFDRDGTIRIPFLSAMAMMGARDGEPGSYPEMVDALTAHGAQGKTDAHALYRRVVFSVMISNVDDHLRNHGFLWLGNAGWSLAPAYDLNPVPSDLKARVLTTNIDLDESTCSVDLLEAASGYFGLTLANARRIIKDVASVTATWRNTARAVGARPAEIERMASAFEHDDLQHGLAL,not soluble
4,MQHIYVPYHVRDHPMSSVCERFERELRRGAIQLEVICLLENERYGYEIVKKLKESGFRVEEGTLYPLLRRLEGEGILSSRWSTDDTRPRKYYTVTDYGKRVRKKWLELFRSINRSLEDLTEVDQ,not soluble
5,MPVVERTTFLAGYSPQQVLDFCLEGANFPKIFPERVTPLGGLDINDLRISVGRQFSFLHWMFGVIPAKWTVVIREVGDRHFVDEMLKGPLRAFRHEHRVEAAEGGTLYTDRVTYRAIGGAPLEWLMVNAYMARIFDARHRNMLRLLSLEHHHHHH,soluble
6,MAKNKKLFEYLSQHAETISSTWYETIEETDPNSIYASTDPVVIHNLKSQNLAFNYKINRIFIDDEDVYLPILKEWAFEVTQDQEHLKTPIHYIIREFVRVRDLYVSYVKEFVHLNQNTVKSEEAEDLYHALIKAFDLVIHIFIEEMYKNTSLQLQAQKDMITELSAPVIVLFHSVGLLPLIGDIDTVRAKLIMENTLHQCAKKKVTQLYIDLSGVAVIDTMVAHQLFSLIEALRLIGVSSTLSGIRPEIAQTAVQLGLSFEGISLRSTLASAIASDLKLKKV,not soluble
7,MADSNDLMSEFQKLQQETSKIQSHLTKDFLSSSAKLSENRVLQATQELCGKLTEKQKVQDDTINLLLSALGQIQENQNKILNQFASMQSQLDIVKRRQDAYERDLIQQKPSVPEQKVGESSKKSPRSAESALKYVETCTKVVDLCIAVSMPGRLFSIGANKMESVEQLKMKIECQTGIPRTKFWLRLHGKPLYDDKKLADYKWDTSVELLVRAS,not soluble
8,MNRNRRDGPQRDVKRERRSRSRSPRRSRIGAAVGSNNGNSSSNNRMVFITNIAYEARWVDLKSLVREKGGEVAFCELLEDRNGKPKGNAVVEFETREGAEKCVENLQKFDWKGRTIIAKEIRDPNAFFRTIKTETGIDYLSRTGGGGAGGRGPPPKDLDRPTRTGTYDLFGLNMEFLRQHNIEPPLCERIFIANLAFNVGTDKLYEVFGMAGKITWMDFRIDKEGKSKGVCVIQYTHPIEAVQAVSMLNGQRLFDRNLVVKMDRFDKELEHKEGGLPRGLESIGMGLGAEGAPLSNVHGMFPGDASVPFTAPAAPFVGGPQVVSAGGFGGVVEQANFARSVMNNGPFGGNAGVGGAGGATFAQPDVFGVNGAGGLAGAATPQATRVIIIRNLPSDYTWQIVRDRVRNFGEVDSVDMMAPGAARIRFATFQDAERARAALYGSTVEGRMISVDYA,soluble
9,MNPRQAFFACLHRSPPALLEAALWIAAEHDPQVVPGLLLEEFKQLQQQVGSSLPTLPANELGQPLLRRLNDLGFQQDEHLPLRPQAALMDKVLERRRGQPLALALIALELAQRLQVPLAGVNFPGHFLLRVPGADHLLDPCGGRRLYPNDCRELLQRQYGAHIKLSAEHLASAEPLQMFQRLSRNLRQLHLSYDDHLGALINAERVLEIGNGSAADYLARASLYQRLECPNAERFDLEHALLLSDDPIQRLRLTERLGHLPPNTIVHLEHHHHHH,soluble
10,LPAGLYFVGTPIGSARDITLRALDVLASAEVIAAEDTRSLRHLLDIHGVPLDGRRVLAYHDHSGAGAQARLLEALAEGKSVAYASEAGMPLIADPGFELSRAAAEAGHMVTCAPGPS,not soluble
11,MSGSMLQLIDLCKGYVDGDEFHPVLQGAELTLNQGDQLALMGESGSGKSTLLNLIAGLDSADSGEIWFPGFPMHHTSEHHRTAFRRDNIGQIFQQYNLLPTLNIADNIRFCRQLKGLPEDAGLWRQILSALDLMPLLGRYPEEVSGGQQQRAAIARALYMEPKILLADEPTGSLDERNAEAVMRLLTTLTRQLNCALLLVTHSEKVAQHMDGCIRLQGGQLHVMARS,not soluble
12,MGKKDKRSKLEGDDLAEAQQKGSFQLPSSNETAKLDASQWPLLLKNYDKLNVRTNHYTPHVEGVSPLKRDIKNYISSGFFNLDKPSNPSSHEVVSWIKRILRCEKTGHSGTLDPKVSGCLIVCIDRTTRLAKSQQGAGKEYICIFKLHEEVEDDRKVKQALEKLTGALFQRPPLISAVKRQLRIRTVYENKFIEYDPAQQMGIFNCICESGTYVRTICVHLGLILGCGGQMQELRRNRSGICDENENMVTMHDVLDAQYLLDTQKDESYMRHIVRPLEALLTQHKRVVVKDSCINAICYGAKILIPGILRYDDDIEVGKEIVIMSTKGEAICIAIAQMNTSTIASVDHGVVAKSKRVIMERDVYGRKWGLGPVASKKKQMVKDGLLDKFGKPNDTTPKSWAKEYVQTSTKKEVKKEETPDEEEEEAPKKKSKKSKKQESSDSDSD,not soluble
13,MTEAQRHQILLEMLAQLGFVTVEKVVERLGISPATARRDINKLDESGKLKKVRNGAEAITQQRPRWTPMNLHQAQNHDEKVRIAKAASQLVNPGESVVINCGSTAFLLGREMCGKPVQIITNYLPLANYLIDQEHDSVIIMGGQYNKSQSITLSPQGSENSLYAGHWMFTSGKGLTAEGLYKTDMLTAMAEQKMLSVVGKLVVLVDSSKIGERAGMLFSRADQIDMLITGKNANPEILQQLEAQGVSILRVLEHHHHHH,not soluble
14,MPWKCYRDYNLESQILKYRTTADVIMKSMYKLEIESLKRELAEYRRGNNGSHSDCKYYDEEAREEVS,not soluble
15,MVVKFTKSEALHKEALEHIVGGVNSPSRSFKAVGGGAPIAMERGKGAYFWDVDGNKYIDYLAAYGPIITGHAHPHITKAITTAAENGVLYGTPTALEVKFAKMLKEAMPALDKVRFVNSGTEAVMTTIRVARAYTGRTKIMKFAGCYHGHSDLVLVAAGSGPSTLGTPDSAGVPQSIAQEVITVPFNNVETLKEALDKWGHEVAAILVEPIVGNFGIVEPKPGFLEKVNELVHEAGALVIYDEVITAFRFMYGGAQDLLGVTPDLTALGKVIGGGLPIGAYGGKKEIMEQVAPLGPAYQAGTMAGNPASMASGIACLEVLQQEGLYEKLDELGAMLEKGILEQAAKHNIDITLNRLKGALTVYFTTNTIEDYDAAQDTDGEMFGKFFKLMLQEGVNLAPSKYEAWFLTTEHTKEDIEYTIEAVGRAFAALADNK,not soluble
16,QDSLPDTKASGPAHSKEVPALTAVETGATNPLAPSDTVQTRHVVQRRSRSESTIESFFARGACVAIIEVDNEQPTTRAQKLFAMWRITYKDTVQLRRKLEFFTYSRFDMEFTFVVTANFTNANNGHALNQVYQIMYIPPGAPTPKSWDDYTWQTSSNPSIFYTYGAAPARISVPYVGLANAYSHFYDGFAKVPLKTDANDQIGDSLYSAMTVDDFGVLAVRVVNDHNPTKVTSKVRIYMKPKHVRVWCPRPPRAVPYYGPGVDYRNNLDPLSEKGLTTY,soluble
17,MKESNSRREFLSQSGKMVTAAALFGTSVPLAHAAVAGTLNCEANNTMKITDPHYYLDNVLLETGFDYENGVAVQTRTARQTVEIQDGKIVALRENKLHPDATLPHYDAGGKLMLPTTRDMHIHLDKTFYGGPWRSLNRPAGTTIQDMIKLEQKMLPELQPYTQERAEKLIDLLQSKGTTIARSHCNIEPVSGLKNLQNLQAVLARRQAGFECEIVAFPQHGLLLSKSEPLMREAMQAGAHYVGGLDPTSVDGAMEKSLDTMFQIALDYDKGVDIHLHETTPAGVAAINYMVETVEKTPQLKGKLTISHAFALATLNEQQVDELANRMVVQQISIASTVPIGTLHMPLKQLHDKGVKVMTGTDSVIDHWSPYGLGDMLEKANLYAQLYIRPNEQNLSRSLFLATGDVLPLNEKGERVWPKAQDDASFVLVDASCSAEAVARISPRTATFHKGQLVWGSVAG,soluble
18,MDGLDYFEPNPDYRVAATVEVDDSDETITMETTAEGERLYERVARLTFEVPDASDNRDEHTLVAYQRVDQRGDGSLFVPFRDKTTGQQTYPAGRYMELHYEGDLEDGATVPLDFNLAYNPFCAYSDAYECPLPPQENWLEIVVPAGERDDQLEHHHHHH,soluble
19,MLELSESNIHLNANAIDKQQAIEMAVSALVQAGNVENGYLQGMLARELQTSTFLGNGIAIPHGTLDTRLMVKKTGVQVFQFPQGIEWGEGNIAYVVIGIAARSDEHLSLLRQLTHVLSDEDTAAKLAKITDVAEFCAILMGETIDPFEIPAANISLDVNTQSLLTLVAINAGQLQVQSAVENRFISEVINNAALPLGKGLWVTDSVVGNVKNALAFSRAKTIFSHNGKAVKGVITVSAVGDQINPTLVRLLDDDVQTTLLNGNSTEILTALLGSSSDVETQSVEGAVVGTFTIRNEHGLHARPSANLVNEVKKFTSKITMQNLTRESEVVSAKSLMKIVALGVTQGHRLRFVAEGEDAKQAIESLGKAIANGLGENVSAVPPSEPDTIEIMGDQIHTPAVTEDDNLPANAIEAVFVIKNEQGLHARPSAILVNEVKKYNASVAVQNLDRNSQLVSAKSLMKIVALGVVKGTRLRFVATGEEAQQAIDGIGAVIESGLGE,not soluble
20,SLFARITFYPSLFYNVMMEKITARHWYDRIDENVILGALPFRSVAQEMVQKENIKAVVSMNEDYELWAFSNNKARWAKLGVEFLQLETTDIFESPCQEKLWKGVNFMNRFLPANDRMALLPAAPGELAEPGTIYVHSKAGRTRSATLVGCYLIMKNGWSPEQAVEHMRQCRPHILLRSKQWEALRLFHQTKCPPPK,soluble
21,MGSDKIHHHHHHMPQSDIFGKAYHEATKHSYLSVQLDPNYLDASTQPSAFKFYPKFYRRVKLNLDNPIHSFIWLTSAVTFEKVYNNVAYKLRVNPSAGALYPTEMYVQIRGMPKIVDGIYHLEVENNCLTLIYELIDDGLESYVIPTKCITGFIFLISSVYYRSSWKYKQRSLRYCLLDSGHHLGAVAASAYLHSRDIQLIFDFDKLALNTDLGFENKEFITGCAISGEIHEKQIRKLRLKVPFVCGTDYFEANQFIEDSYQATSVQPSHQQQLQQPCFDFEQDKFYQTVWNRRSIRRFRKEFISQEHYLYVLQLLQQPIPTESGEEIEIYSVIHRVEGMKSGLYKGANLVKAGDFSEHTGYLCVNQALARDCAVVLFFVSKYTSYQTAMQIAGFLGQRIYLGSNYVGIQCSGIGAFYDDETQEFLETHKDVLYATAIGT,not soluble
